Data taken from US20050142582, “Aptamers and methods for their in vitro selection and uses thereof” (The Regents of the University of California, published 2005).

Key:
[1] = biological target: XF1293 (hypothetical conserved protein) (Xylella fastidiosa, UniProt Q9PDT6 Q9PDT6:1-231); assay: SPR; conditions: tags: His6, E. coli; label: biotin
BSA = BSA (UniProt P02769 P02769:25-607); assay: ELONA; PBS-T, 4 C overnight; conditions: label: biotin
[2] = biological target: T1, TTF1 (thyroid transcription factor 1) (Ciona intestinalis, UniProt O96738 O96738:1-477); assay: SPR; kinetic global fit 1:1; steady-state Kd 5.14 nM; HBS-P pH 7.5, 150 mM NaCl; conditions: tags: N-terminal His6 plus factor Xa site (pNHis vector), E. coli; label: biotin
T1 sequence: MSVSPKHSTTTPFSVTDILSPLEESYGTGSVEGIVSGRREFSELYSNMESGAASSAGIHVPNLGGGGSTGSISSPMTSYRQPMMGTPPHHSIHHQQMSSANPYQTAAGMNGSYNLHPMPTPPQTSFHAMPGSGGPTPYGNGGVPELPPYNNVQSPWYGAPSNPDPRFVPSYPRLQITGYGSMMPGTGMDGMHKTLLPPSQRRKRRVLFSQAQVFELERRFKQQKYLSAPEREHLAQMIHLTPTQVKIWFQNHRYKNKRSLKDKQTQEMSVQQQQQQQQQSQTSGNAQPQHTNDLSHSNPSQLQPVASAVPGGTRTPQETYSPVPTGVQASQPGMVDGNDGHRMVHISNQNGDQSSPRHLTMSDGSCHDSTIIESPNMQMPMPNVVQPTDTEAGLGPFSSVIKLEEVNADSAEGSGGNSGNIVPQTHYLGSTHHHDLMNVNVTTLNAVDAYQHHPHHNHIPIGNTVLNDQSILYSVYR
Procedure: (§1) The affinity, as described by the KD, was determined by a global fit using the kinetic simultaneous kₐ/kd model, assuming Langmuir (1:1) binding.
(§2) BIAcore surface plasmon resonance. The affinity of the aptamers for their protein targets was measured using surface plasmon resonance (SPR) with a BIAcore X instrument (BIAcore, Piscataway, N.J.). Biotinylated aptamer (QIAGEN Operon, Alameda, Calif.) was diluted to 0.5 ng/μL in HBS-P (10 mM HEPES, pH 7.5, 150 mM NaCl, 0.05% Tween 20), heated to 95° C., and rapidly cooled at 4° C. before use. Approximately 100 RU of biotinylated aptamer (ligand) was immobilized to one flow cell of a streptavidin coated sensor chip. Purified TTF1 protein was diluted into HBS-P to give a series of concentrations of TTF1 protein (3, 12, 31, 62, 125, 250 nM or 2.5, 5, 10, 20, 40, 100 nM) that were injected over the surface for 2 min at a flow rate of 20 μL/min (to minimize mass transfer limitations). Bulk shift and non-specific interactions with the streptavidin were subtracted using the response from a reference flow cell. […] The affinity, as described by the equilibrium dissociation constant (KD), was determined globally by fitting to the kinetic simultaneous kₐ/kd model, assuming Langmuir (1:1) binding. The steady-state affinity was determined from curve-fitting to a plot of the Req values, derived from sensorgrams fitted locally, against the concentrations.

[3] = biological target: XF0749 (virulence regulator) (Xylella fastidiosa, UniProt Q9PFC9 Q9PFC9:1-134); assay: SPR; conditions: tags: His6, E. coli; label: biotin
[4] = biological target: T1, TTF1 (thyroid transcription factor 1); assay: SPR; kinetic global fit 1:1; steady-state Kd 65.6 nM; HBS-P pH 7.5, 150 mM NaCl; conditions: tags: N-terminal His6 plus factor Xa site (pNHis vector), E. coli; label: biotin
Procedure: as §1, §2

Chain of BSA (P02769 25-607, one chain of several): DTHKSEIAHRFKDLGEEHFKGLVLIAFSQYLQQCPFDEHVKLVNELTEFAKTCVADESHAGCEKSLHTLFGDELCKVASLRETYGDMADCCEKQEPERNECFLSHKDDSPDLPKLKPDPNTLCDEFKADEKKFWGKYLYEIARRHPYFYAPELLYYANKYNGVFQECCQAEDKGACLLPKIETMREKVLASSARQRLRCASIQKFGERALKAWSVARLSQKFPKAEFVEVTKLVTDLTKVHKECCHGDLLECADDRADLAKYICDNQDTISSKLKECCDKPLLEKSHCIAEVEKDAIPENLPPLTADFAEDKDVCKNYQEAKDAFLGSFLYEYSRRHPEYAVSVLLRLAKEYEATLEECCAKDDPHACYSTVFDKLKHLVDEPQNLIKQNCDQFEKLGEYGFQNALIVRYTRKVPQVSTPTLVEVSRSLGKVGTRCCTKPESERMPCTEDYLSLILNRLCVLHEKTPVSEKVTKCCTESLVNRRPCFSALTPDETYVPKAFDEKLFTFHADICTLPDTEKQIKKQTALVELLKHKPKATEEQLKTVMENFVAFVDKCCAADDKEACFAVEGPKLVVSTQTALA

B1: 6H5 (ssDNA)
DNA: GGTATTGAGGGTCGCATCGGCTTCAGGTTGGTCTGGTTGGGTTTGGCTCCTGTGTACGGATGGCTCTAACTCTCCTCT
Which Kd [1] does the source give for B1 here?
Its Kd is 30 nM.

B2: TTF1 Aptamer A (ssDNA)
DNA: GGTATTGAGGGTCGCATCTCAAAAGGGGTGATTGCTTGCACAATGACAGGGTAGGACAGATGGCTCTAACTCTCCTCT
Does B2 bind (BSA)?
Result: no binding

And the Kd [2]?
Its Kd is 3.36 nM.

B3: 6H7 (ssDNA)
DNA: GGTATTGAGGGTCGCATCGCTATGGGTGGTCTGGTTGGGATTGGCCCCGGGAGCTGGCGATGGCTCTAACTCTCCTCT
What does the source list for B3?
Kd [3]: 42 nM; Kd [1]: 0.4 nM

B4: TTF1 Aptamer C (ssDNA)
DNA: GGTATTGAGGGTCGCATCTGGCTAGTGGGTAAGGGGCGGGAGGGTGACAGGGCGATCCGATGGCTCTAACTCTCCTCT
Which Kd [4] does the source give for B4 here?
Its Kd is 32.5 nM.

B5: 6H1 (ssDNA)
DNA: GGTATTGAGGGTCGCATCGGCAAAAAGGATTGCCCAGGTCTGCTGTCTAGCCGGATTCGATGGCTCTAACTCTCCTCT
Which Kd [1] does the source give for B5 here?
The Kd was 0.08 nM.
